Source: patent US11156615B2 (priority 2015, dated 2021)
Numbering of substitutions follows the chain as printed. Like-named read-outs stand apart in the source and are kept apart here. Values belong to the molecule of their own block, whether it stands above or below them.

Columns and labels:
[1] = format: physicochemical
From the text: (§1) Panels A-C: ttGBP182C.2.0-Imm0; Panels D-F: ttGBP182C.2.0-Imm1 (see FIG. 13). (A) Solution (Tm=347.6K). (B) Immobilized on Nickel-nitriloacetic acid (Ni-NTA) beads (Tm=346.7K). (C) Reconstituted, desiccated Ni-NTA beads (Tm=347.6K). (D) Fluorescence response of ttGGBP5.2 Imm1 immobilized on NHS-functionalized agarose beads. Data was collected on a Roche LightCycler real-time PCS instrument, recording emission intensities at 488 nm and 510 nm as a function of temperature in a 384-well microtiter plate. […] Temperature melts of twelve different wells. Apo protein thermostability as reported by the denaturation mid-point temperature is 349 K, similar to the protein free in solution. […] (F) Representative Langmuir ligand-binding curve extracted from the three-dimensional data.
(§2) Site-specific immobilization minimizes perturbation of the sensing mechanism. […] Similarly, hexa-lysine fusion domains were immobilized on agarose beads derivatized with N-hydroxysuccinimide, and the QNK- or βZif-fusion on iodacetyl-derivatized beads.

[2] = Thermostability: mid-point thermal denaturation temperature (Tm) from temperature-dependent fluorescence (Roche LightCycler); format: physicochemical; conditions: for apoTm: apo-protein
Summary of the method: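 Unfolding tracked by SYPRO binding to denatured protein, fluorescence at 488 nm/510 nm recorded on a LightCycler as temperature rose in 1 K steps. Tm taken as denaturation mid-point, for protein in solution or immobilized on Ni-NTA or NHS-agarose beads.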

[3] = Glucose-dependent fluorescence emission intensity spectra of conjugates (Nanodrop3300); format: biochemical; conditions: Nanodrop3300
From the text: Semi-synthetic FRSs were engineered by site-specifically attaching thiol-reactive, environmentally sensitive fluorophores that respond to ligand-mediated conformational changes. Identification of FRS candidates that are useful for sensing applications comprises three steps: • 1. Cysteine scan. Mutant glucose-binding proteins containing single cysteines are constructed for site-specific attachment of thiol-reactive fluorophores. […] Candidate positions fall into three classes: endosteric, replacing a residue that contacts the ligand directly; peristeric, located at the rim of the binding site; allosteric (Marvin et al. 1997 Proc Natl Acad Sci USA, 94, 4366-71; Marvin 1998 J Am Chem Soc, 120, 7-11), located outside the binding site at sites that undergo local structural changes in concert with the hinge-bending motion. • 2. Fluorophore screening. Thiol-reactive, environmentally sensitive fluorophores are attached to each cysteine mutant prepared in step 1. • 3. Evaluation of the glucose-mediated change of all the fluorescent conjugates prepared in step 2. Responses to ligand binding in which there is both a change in fluorescence emission intensity and spectral shape was essential for chemometric applications, because such changes enable ratiometric measurements. Changes in spectral shape typically are accompanied by a shift in the wavelength of the emission intensity maxima. Three classes of fluorescent responses are possible: • i. No response. • ii. Monochromatic response (emission intensity increases or decreases without a change in spectral shape) • iii.

[4] = Galactose binding: isothermal fluorescence titrations of conjugates; set-up: key to Galactose trueKd: nb, no bonding; conditions: for S, selectivity = trueKd(galactose)/trueKd(glucose): S > 1, selective for glucose; for Kd: read-out: Galactose trueKd; for Kd / Galactose trueKd: monochromatic titration curves, room temperature
[5] = Glucose binding: isothermal fluorescence titrations, ratiometric (appKd) and monochromatic (trueKd) fits; set-up: key to Glucose appKd / Glucose trueKd: nb, no bonding; conditions: room temperature
From the text: 2 For a single glucose-binding site, the fractional saturation is given by
[formula] where ^apoIλ2 and ^satIλ2 are the emission intensities of the monochromatic signal at wavelength λ2 of the ligand-free and ligand-bound protein, respectively.

[6] = Glucose titration of bead-immobilized sensor; format: binding; conditions: read-out: Kd (glucose); 25° C.; immobilized on NHS-functionalized agarose beads
From the text: as §1
Data were highly precise, being reproducible <0.2% coefficient of variance.
as §2

[7] = Badan conjugate of ttGGBP.17C mutant
[8] = read-out: Glucose appKd, Badan conjugate, dichromatic ratiometry
[9] = read-out: Glucose trueKd, Badan conjugate, monochromatic titration curves
[10] = Acrylodan conjugate of ttGGBP.17C mutant
[11] = read-out: Glucose appKd, Acrylodan conjugate, dichromatic ratiometry
[12] = read-out: Glucose trueKd, Acrylodan conjugate, monochromatic titration curves

B1: ttGBP182C.2.0-Imm0: ttGGBP182C.2.0 immobilization fusion construct Imm0 (SEQ ID NO: 173), Acrylodan labelled (conjugate)
chain: MKQLNIGVAIYKFDDTFMTGVRNAMTAEAQGKAKLNMVDSQNSQPTQNDQVDLFITKKMNALAINPVDRTAAGTIIDKAKQANIPVVFFNKEPLPEDMKKWDKVYYVGAKAEQSGILQGQIMADYWKAHPEADKNHDGVMQYVMLMGEPGHQDAILRTQYSIQTVKDAGIKVQELAKDYANCDRVTAHDKMAAWLSSFGDKIEAVFANNDDMALGAIEALKSAGYFTGNKYIPVVGVDATAPGIQAIKDGTLLGTVLNDAKNQAKATFNIAYELAQGITPTKDNIGYDITDGKYVWIPYKKITKDNISDAEQGGSHHHHHH
modifications: Acrylodan label; ttGGBP182C.2.0_Imm0
- Tm ([1]; immobilized on Ni-NTA beads (FIG. 14B)): 73.6 °C
- Tm ([1]; reconstituted, desiccated Ni-NTA beads (FIG. 14C)): 74.5 °C
- Tm ([2]; solution (FIG. 14A)): 74.5 °C

B6: ttGGBP17C.8: affinity-tuning mutant, 17C background, SEQ ID NO: 73 (protein)
chain: B1 chain with T16N, F17C, K91R, E148Q, C182W
modifications: ttGGBP17C.8 (affinity-tuning mutant, 17C background (Table 6) with signal peptide replaced with M and GGSHHHHHH at C-terminus)
- Type of fluorescence response to glucose [3, 10]: r(h) (r(h), ratiometric (hypsochromic shift))
- S, selectivity = trueKd(galactose)/trueKd(glucose) ([4]; Acrylodan conjugate): 0.43
- Kd ([4]; Acrylodan conjugate): 260 µM
- apoTm ([2]; Acrylodan conjugate): 348 K
- Kd [5, 11]: 610 µM
- Kd [5, 12]: 600 µM

B7: ttGGBP17C.7: affinity-tuning mutant, 17C background, SEQ ID NO: 72 (protein)
chain: B1 chain with D15N, F17C, K91R, E148Q, C182W
modifications: ttGGBP17C.7 (affinity-tuning mutant, 17C background (Table 6) with signal peptide replaced with M and GGSHHHHHH at C-terminus)
- Type of fluorescence response to glucose [3, 10]: d (d, intensity decrease only)
- Type of fluorescence response to glucose [3, 7]: d (d, intensity decrease only)
- S, selectivity = trueKd(galactose)/trueKd(glucose) ([4]; Acrylodan conjugate): 0.91
- S, selectivity = trueKd(galactose)/trueKd(glucose) ([4]; Badan conjugate): 0.64
- Kd ([4]; Acrylodan conjugate): 300 µM
- Kd ([4]; Badan conjugate): 640 µM
- apoTm ([2]; Acrylodan conjugate): 348 K
- apoTm ([2]; Badan conjugate): 347 K
- Kd [5, 11]: 300 µM
- Kd [5, 8]: 750 µM
- Kd [5, 12]: 300 µM
- Kd [5, 9]: 1000 µM

B9: ttGGBP5.2 Imm1: ttGGBP182C.2.0 immobilization fusion construct Imm1 (SEQ ID NO: 175), labelled, on NHS-functionalized agarose beads (conjugate)
chain: MKQLNIGVAIYKFDDTFMTGVRNAMTAEAQGKAKLNMVDSQNSQPTQNDQVDLFITKKMNALAINPVDRTAAGTIIDKAKQANIPVVFFNKEPLPEDMKKWDKVYYVGAKAEQSGILQGQIMADYWKAHPEADKNHDGVMQYVMLMGEPGHQDAILRTQYSIQTVKDAGIKVQELAKDYANCDRVTAHDKMAAWLSSFGDKIEAVFANNDDMALGAIEALKSAGYFTGNKYIPVVGVDATAPGIQAIKDGTLLGTVLNDAKNQAKATFNIAYELAQGITPTKDNIGYDITDGKYVWIPYKKITKDNISDAEQGGSGGSKKKKKKGGSHHHHHH
modifications: fluorescent label; immobilized on NHS-agarose beads; ttGGBP182C.2.0_Imm1
- denaturation mid-point temperature (apo protein thermostability) [1]: 349 K
- Kd [6]: 4800 µM

Further lines, with some results ahead:

- S, selectivity = trueKd(galactose)/trueKd(glucose) ([4]; Badan conjugate): 33
- Kd ([4]; Badan conjugate): 8800 µM
- Kd [5, 8]: 200 µM
- Kd [5, 9]: 300 µM
B2: ttGGBP17C.27: affinity-tuning mutant, 17C background, SEQ ID NO: 85 (protein)
chain: B1 chain with F17C, K91R, E148Q, C182W, A260F
modifications: ttGGBP17C.27 (affinity-tuning mutant, 17C background (Table 6) with signal peptide replaced with M and GGSHHHHHH at C-terminus)
- Type of fluorescence response to glucose [3, 7]: i (i, intensity increase only)
- apoTm ([2]; Badan conjugate): 346 K

- S, selectivity = trueKd(galactose)/trueKd(glucose) ([4]; Badan conjugate): 16
- Kd ([4]; Badan conjugate): 14000 µM
- Kd [5, 8]: 900 µM
- Kd [5, 9]: 900 µM
B3: ttGGBP17C.26: affinity-tuning mutant, 17C background, SEQ ID NO: 84 (protein)
chain: B1 chain with F17C, K91R, E148Q, C182W, A260W
modifications: ttGGBP17C.26 (affinity-tuning mutant, 17C background (Table 6) with signal peptide replaced with M and GGSHHHHHH at C-terminus)
- Type of fluorescence response to glucose [3, 10]: i (i, intensity increase only)
- Type of fluorescence response to glucose [3, 7]: r(h) (r(h), ratiometric (hypsochromic shift))
- apoTm ([2]; Badan conjugate): 346 K

- Galactose trueKd ([4]; Badan conjugate): nb^c
- Kd [5, 8]: 15000 µM
- Kd [5, 9]: 18000 µM
B4: ttGGBP17C.23: affinity-tuning mutant, 17C background, SEQ ID NO: 81 (protein)
chain: B1 chain with F17C, K91R, E148Q, C182W, A260Q
modifications: ttGGBP17C.23 (affinity-tuning mutant, 17C background (Table 6) with signal peptide replaced with M and GGSHHHHHH at C-terminus)
- Type of fluorescence response to glucose [3, 10]: i (i, intensity increase only)
- Type of fluorescence response to glucose [3, 7]: i (i, intensity increase only)
- apoTm ([2]; Badan conjugate): 344 K

- Galactose trueKd ([4]; Badan conjugate): nb^e
- Glucose appKd ([5]; Badan conjugate, dichromatic ratiometry): nb^e
- Glucose trueKd ([5]; Badan conjugate, monochromatic titration curves): nb^e
B5: ttGGBP17C.20: affinity-tuning mutant, 17C background, SEQ ID NO: 78 (protein)
chain: B1 chain with F17C, K91R, E148Q, C182W, N258S
modifications: ttGGBP17C.20 (affinity-tuning mutant, 17C background (Table 6) with signal peptide replaced with M and GGSHHHHHH at C-terminus)
- Type of fluorescence response to glucose [3, 10]: d (d, intensity decrease only)
- apoTm ([2]; Badan conjugate): 344 K

- S, selectivity = trueKd(galactose)/trueKd(glucose) ([4]; Badan conjugate): 37
- Kd ([4]; Badan conjugate): 2600 µM
- Kd [5, 8]: 60 µM
- Kd [5, 9]: 70 µM
B8: ttGGBP17C.28: affinity-tuning mutant, 17C background, SEQ ID NO: 86 (protein)
chain: B1 chain with F17C, K91R, E148Q, C182W, A260Y
modifications: ttGGBP17C.28 (affinity-tuning mutant, 17C background (Table 6) with signal peptide replaced with M and GGSHHHHHH at C-terminus)
- Type of fluorescence response to glucose [3, 7]: i (i, intensity increase only)
- apoTm ([2]; Badan conjugate): 346 K
